In IntAct's records for PubMed 20080638:

B1: BBSome complex assembly protein BBS10 (Homo sapiens), Q8TAM1 (parent)
chain: MLSSMAAAGSVKAALQVAEVLEAIVSCCVGPEGRQVLCTKPTGEVLLSRNGGRLLEALHLEHPIARMIVDCVSSHLKKTGDGAKTFIIFLCHLLRGLHAITDREKDPLMCENIQTHGRHWKNCSRWKFISQALLTFQTQILDGIMDQYLSRHFLSIFSSAKERTLCRSSLELLLEAYFCGRVGRNNHKFISQLMCDYFFKCMTCKSGIGVFELVDDHFVELNVGVTGLPVSDSRIIAGLVLQKDFSVYRPADGDMRMVIVTETIQPLFSTSGSEFILNSEAQFQTSQFWIMEKTKAIMKHLHSQNVKLLISSVKQPDLVSYYAGVNGISVVECLSSEEVSLIRRIIGLSPFVPPQAFSQCEIPNTALVKFCKPLILRSKRYVHLGLISTCAFIPHSIVLCGPVHGLIEQHEDALHGALKMLRQLFKDLDLNYMTQTNDQNGTSSLFIYKNSGESYQAPDPGNGSIQRPYQDTVAENKDALEKTQTYLKVHSNLVIPDVELETYIPYSTPTLTPTDTFQTVETLTCLSLERNRLTDYYEPLLKNNSTAYSTRGNRIEISYENLQVTNITRKGSMLPVSCKLPNMGTSQSYLSSSMPAGCVLPVGGNFEILLHYYLLNYAKKCHQSEETMVSMIIANALLGIPKVLYKSKTGKYSFPHTYIRAVHALQTNQPLVSSQTGLESVMGKYQLLTSVLQCLTKILTIDMVITVKRHPQKVHNQDSEDEL
partner: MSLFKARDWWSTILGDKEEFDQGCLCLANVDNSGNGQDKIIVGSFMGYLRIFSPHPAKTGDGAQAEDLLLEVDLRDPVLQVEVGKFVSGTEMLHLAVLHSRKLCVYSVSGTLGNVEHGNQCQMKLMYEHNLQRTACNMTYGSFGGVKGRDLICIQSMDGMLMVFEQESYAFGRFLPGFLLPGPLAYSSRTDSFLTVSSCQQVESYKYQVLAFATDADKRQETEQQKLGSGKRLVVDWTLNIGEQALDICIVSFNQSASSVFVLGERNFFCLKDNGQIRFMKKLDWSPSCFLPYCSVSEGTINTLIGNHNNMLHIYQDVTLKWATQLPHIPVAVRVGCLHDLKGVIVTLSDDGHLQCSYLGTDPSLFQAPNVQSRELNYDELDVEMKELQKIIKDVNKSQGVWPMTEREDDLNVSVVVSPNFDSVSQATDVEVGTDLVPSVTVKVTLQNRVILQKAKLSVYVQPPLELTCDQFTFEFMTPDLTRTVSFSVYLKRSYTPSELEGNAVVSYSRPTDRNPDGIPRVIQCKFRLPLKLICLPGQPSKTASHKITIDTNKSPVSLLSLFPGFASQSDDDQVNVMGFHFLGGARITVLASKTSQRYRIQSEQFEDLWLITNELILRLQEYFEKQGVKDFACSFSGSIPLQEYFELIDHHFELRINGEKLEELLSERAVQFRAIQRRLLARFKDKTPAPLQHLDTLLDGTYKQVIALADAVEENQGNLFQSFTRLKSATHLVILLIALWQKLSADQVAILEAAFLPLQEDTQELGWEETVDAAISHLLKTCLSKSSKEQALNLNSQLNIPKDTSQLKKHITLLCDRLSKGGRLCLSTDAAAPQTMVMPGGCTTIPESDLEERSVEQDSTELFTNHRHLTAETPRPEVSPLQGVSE
B2: BBSome complex assembly protein BBS10 (Homo sapiens), Q8TAM1 (parent)
chain: B1 chain
partner: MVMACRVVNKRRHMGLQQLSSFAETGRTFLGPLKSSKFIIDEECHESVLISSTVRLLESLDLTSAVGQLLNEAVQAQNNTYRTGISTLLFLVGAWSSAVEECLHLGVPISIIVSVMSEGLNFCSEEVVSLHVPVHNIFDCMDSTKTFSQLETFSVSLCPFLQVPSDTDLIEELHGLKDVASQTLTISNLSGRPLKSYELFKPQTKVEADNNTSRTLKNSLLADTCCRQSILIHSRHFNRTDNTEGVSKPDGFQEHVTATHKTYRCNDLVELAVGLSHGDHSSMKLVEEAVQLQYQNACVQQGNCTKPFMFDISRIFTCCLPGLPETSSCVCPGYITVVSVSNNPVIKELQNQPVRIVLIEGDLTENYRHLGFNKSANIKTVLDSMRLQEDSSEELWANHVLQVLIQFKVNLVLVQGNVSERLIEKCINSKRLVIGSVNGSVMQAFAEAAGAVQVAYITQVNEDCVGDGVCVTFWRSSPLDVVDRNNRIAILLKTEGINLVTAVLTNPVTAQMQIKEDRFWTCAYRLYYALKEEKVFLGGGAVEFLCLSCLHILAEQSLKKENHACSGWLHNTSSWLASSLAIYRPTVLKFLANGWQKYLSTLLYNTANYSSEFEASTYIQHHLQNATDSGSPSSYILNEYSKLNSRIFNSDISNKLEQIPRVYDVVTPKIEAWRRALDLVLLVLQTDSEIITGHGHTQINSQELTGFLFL
B3: Molecular chaperone MKKS (Homo sapiens), Q9NPJ1 (parent)
chain: MSRLEAKKPSLCKSEPLTTERVRTTLSVLKRIVTSCYGPSGRLKQLHNGFGGYVCTTSQSSALLSHLLVTHPILKILTASIQNHVSSFSDCGLFTAILCCNLIENVQRLGLTPTTVIRLNKHLLSLCISYLKSETCGCRIPVDFSSTQILLCLVRSILTSKPACMLTRKETEHVSALILRAFLLTIPENAEGHIILGKSLIVPLKGQRVIDSTVLPGILIEMSEVQLMRLLPIKKSTALKVALFCTTLSGDTSDTGEGTVVVSYGVSLENAVLDQLLNLGRQLISDHVDLVLCQKVIHPSLKQFLNMHRIIAIDRIGVTLMEPLTKMTGTQPIGSLGSICPNSYGSVKDVCTAKFGSKHFFHLIPNEATICSLLLCNRNDTAWDELKLTCQTALHVLQLTLKEPWALLGGGCTETHLAAYIRHKTHNDPESILKDDECTQTELQLIAEAFCSALESVVGSLEHDGGEILTDMKYGHLWSVQADSPCVANWPDLLSQCGCGLYNSQEELNWSFLRSTRRPFVPQSCLPHEAVGSASNLTLDCLTAKLSGLQVAVETANLILDLSYVIEDKN
partner: B2 partner
B4: Chaperonin-containing T-complex member BBS12 (Homo sapiens), Q6ZW61 (parent)
chain: B2 partner
partner: B3 chain
B5: BBSome complex assembly protein BBS10 (Homo sapiens), Q8TAM1 (parent)
chain: B1 chain
partner: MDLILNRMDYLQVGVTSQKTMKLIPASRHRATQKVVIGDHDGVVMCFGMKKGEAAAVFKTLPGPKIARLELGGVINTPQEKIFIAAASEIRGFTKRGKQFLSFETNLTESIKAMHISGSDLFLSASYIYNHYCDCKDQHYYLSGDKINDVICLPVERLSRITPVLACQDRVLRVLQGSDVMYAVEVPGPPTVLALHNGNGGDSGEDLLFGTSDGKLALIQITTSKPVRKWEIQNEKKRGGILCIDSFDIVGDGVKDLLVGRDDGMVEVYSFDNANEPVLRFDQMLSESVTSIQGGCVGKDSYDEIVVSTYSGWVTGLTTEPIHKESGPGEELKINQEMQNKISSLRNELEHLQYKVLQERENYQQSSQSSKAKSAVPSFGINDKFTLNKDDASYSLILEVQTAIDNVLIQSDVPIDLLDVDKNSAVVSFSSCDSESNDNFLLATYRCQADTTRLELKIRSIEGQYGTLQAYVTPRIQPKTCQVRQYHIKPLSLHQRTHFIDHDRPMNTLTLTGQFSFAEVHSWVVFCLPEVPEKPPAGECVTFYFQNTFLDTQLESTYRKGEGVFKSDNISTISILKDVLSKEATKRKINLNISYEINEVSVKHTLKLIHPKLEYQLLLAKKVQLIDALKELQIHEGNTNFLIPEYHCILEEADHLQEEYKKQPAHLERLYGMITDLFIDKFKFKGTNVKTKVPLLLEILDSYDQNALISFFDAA

Variants of: B1
Details: with pthb1_human BBS9, Q3SYG4
With R49W the “effect of a mutation on the interaction” value was “decreasing interaction”.
For D81N, the “effect of a mutation on the interaction” value was “decreasing interaction”.

Variants of: B2
Details: with bbs12_human BBS12, Q6ZW61
With D81N the “effect of a mutation on the interaction” value was “decreasing interaction”.
With V240G the “effect of a mutation on the interaction” value was “decreasing interaction”.
For S311A, the “effect of a mutation on the interaction” value was “decreasing interaction”.
With S329L the “effect of a mutation on the interaction” value was “decreasing interaction”.

Variants of: B3
Details: with bbs12_human BBS12, Q6ZW61
With MSRLEAKKPSLCKSEPLTTERVRTTLSVLKRIVTSCYGPSGRLKQLHNGFGGYVCTASQSSALLSHLLVTHPILKILTASIQNHVSSFSDCGLFTAILCCNLIENVQRLGLTPTTVIRLNKHLLSLCISYLKSETCGCRIPVDFSSTQILLCLVRSILTSKPACMLTRKETEHVSALILRAFLLTIPENAEGHIILGKSLIVPLKGQRVIDSTVLPGILIEMSEVQLMRLLPIKKSTALKVALFCTTLSGDTSDTGEGTVVVSYGVSLENAVLDQLLNLGRQLISDHVDLVLCQKVIHPSLKQFLNMHRIIAIDRIGVTLMEPLTKMTGTQPIGSLGSICPNSYGSVKDVCTAKFGSKHFFHLIPNEATICSLLLCNRNDTAWDELKLTCQTALHVLQLTLKEPWALLGGGCTETHLAAYIRHKTHNDPESILKDDECTQTELQLIAEAFCSALESVVGSLEHDGGEILTDMKYGHLWSVQADSPCVANWPDLLSQCGCGLYNSQEELNWSFLRSTRRPFVPQSCLPHEAVGSASNLTLDCLTAKLSGLQVAVETANLILDLSYVIEDKN [T57A] the “effect of a mutation on the interaction” value was “decreasing interaction”.

Variants of: B4
Details: with mkks_human MKKS
With I346T the “effect of a mutation on the interaction” value was “disrupting interaction”.
In the case of T501M, the “effect of a mutation on the interaction” value is reported as “decreasing interaction”.
G540V was tested, and the “effect of a mutation on the interaction” value was “decreasing interaction”.

Variants of: B5
Details: with bbs7_human BBS7, Q8IWZ6
With R34P the “effect of a mutation on the interaction” value was “decreasing interaction”.
With D81N the “effect of a mutation on the interaction” value was “decreasing interaction”.
In the case of V240G, the “effect of a mutation on the interaction” value is reported as “decreasing interaction”.
